Measurements taken from CN113912731A (SHENGHE CHINA BIO PHARMACY CO LTD, dated 2022).

T1: 人FGL1-his蛋白(Sinobio;Cat:13484-H08B) (human, UniProt Q08830 23-312)
T1 construct: Bought protein; also called 重组人FGL1-his蛋白; not shown: his tag
T1 sequence (looked up): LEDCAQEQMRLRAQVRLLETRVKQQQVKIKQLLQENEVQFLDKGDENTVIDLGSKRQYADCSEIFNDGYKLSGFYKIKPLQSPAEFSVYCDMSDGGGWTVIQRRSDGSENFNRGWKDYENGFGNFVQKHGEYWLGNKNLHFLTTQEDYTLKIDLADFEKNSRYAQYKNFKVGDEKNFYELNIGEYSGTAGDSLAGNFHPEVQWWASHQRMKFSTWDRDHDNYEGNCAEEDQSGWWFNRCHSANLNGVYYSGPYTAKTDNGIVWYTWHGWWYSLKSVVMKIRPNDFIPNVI

T2: 鼠FGL1-his (mouse, UniProt Q71KU9 23-314, limits assumed)
T2 construct: also called 小鼠FGL1蛋白; 鼠FGL1蛋白; not shown: his tag
T2 sequence (looked up): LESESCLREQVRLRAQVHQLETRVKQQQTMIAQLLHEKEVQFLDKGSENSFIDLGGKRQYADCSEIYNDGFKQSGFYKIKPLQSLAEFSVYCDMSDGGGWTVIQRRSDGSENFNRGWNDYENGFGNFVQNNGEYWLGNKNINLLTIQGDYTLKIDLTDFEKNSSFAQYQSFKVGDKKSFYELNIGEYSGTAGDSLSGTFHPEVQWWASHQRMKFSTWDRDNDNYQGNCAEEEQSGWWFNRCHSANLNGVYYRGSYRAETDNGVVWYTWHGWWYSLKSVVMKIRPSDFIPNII

B1: SH-10 (antibody, human IgG1, V domains shown)
VH: EVQLVESGGGLVQPGGSLRLSCAASGDTLDYYAIGWFRQAPGKEREGVSCIRSSGSGPHYSDSVQDRFIISRDNARGTVYLQMNSLKPEDTAVYYCAATEGFYCSPTLSQGEYDYWGQGTQVTVSS
notes: Heavy-chain-only antibody from the alpaca immune phage library; expressed in CHO cells; also called 抗体SH-10
B2: SH-08 (antibody, V domains shown)
VH: EVQLVESGGGLVKPGGSLRLSCAASGFTFSSYSMNWVRQAPGKGLEWVSSISSSSSYIYYADSVKGRFTISRDNAKNSLYLQMNSLRAEDTAVYYCARDFPSPSGGRGFRPTTARGYGMDVWGQGTTVTVSS
VL: QSALTQPASVSGSPGQSIIISCTGSKSDIGTYNFVSWYQQHPGKAPNVIIYNVNKRPSGVSDRFSGSKSGNTASLTISGLQAEDEADFYCSSYTSSGTHVFGSGTKVIVL
notes: From the human natural phage display library; also called 抗体SH-08; not shown: 轻链恒定区
B3: SH-04 (antibody, V domains shown)
VH: EVQLQQSGPELEKPGASVKMSCKASGYTFTRYWMHWVKQRPGQGLEWIGMIDPSDSYTSYNQKFKGKATLTVDTSSSTAYMQLSSLTSEDSAVYYCTLRPGLDYWGQGTTLTVSS
VL: DIVMTQSQKFMSTSVGDRVSVTCKASQNVGTNVAWYQQKPGQSPKALIYSASYRYSGVPDRFTGSGSGTDFTLTISNVQSEDLAEYFCQQYNSYPLTFGGGTKLEIK
notes: From hybridoma; also called 抗体SH-04; not shown: 轻链恒定区
B4: SH-06 (antibody, V domains shown)
VH: QVQLQESGPGLVKPSQTLSLTCTVSGGSISSGGYYWSWIRQHPGKGLEWIGYIYYSGSTYYNPSLKSRVTISVDTSKNQFSLKLSSVTAADTAVYYCARDSVMGYAPRVRAFDIWGQGTMVTVSS
VL: QSALTQPPSASGTPGQRVTISCSGSSSNIGTNTVNWYQQLPGTAPKLLIYSTNQRPSGVPDRFSGSKSGTSASLAISGLQSEDEADYYCSSWAGDLNGRLFGGGTKLTVL
notes: From the human natural phage display library; also called 抗体SH-06; not shown: 轻链恒定区
B5: SH-07 (antibody, V domains shown)
VH: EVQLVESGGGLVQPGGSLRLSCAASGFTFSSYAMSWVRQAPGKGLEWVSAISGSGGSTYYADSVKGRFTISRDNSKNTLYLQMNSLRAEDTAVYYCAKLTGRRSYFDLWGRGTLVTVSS
VL: DIQMIQSPSSLSASVGDRVTITCRASQSISHYLNWYQQKPGKVPKLLIYAASSLQSGVPSRFSGSGSGTDFTLTISSLQPEDFATYYCQQSYSTPSFGQGTKVEIK
notes: From the human natural phage display library; also called 抗体SH-07; not shown: 轻链恒定区
B6: SH-05 (antibody, V domains shown)
VH: EVQLVQSGGVVVQPGGSLRLSCAASGFTFDDYAMHWVRQAPGKGLEWVSLISWDGGSTYYADSVKGRFTISRDNSKNTLYLQMNSLRAEDTAVYYCARNSGRRNWFDPWGQGTLVTVSS
VL: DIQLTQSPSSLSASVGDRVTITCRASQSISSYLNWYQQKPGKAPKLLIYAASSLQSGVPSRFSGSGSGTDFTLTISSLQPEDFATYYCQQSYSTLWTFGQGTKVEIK
notes: From the human natural phage display library; also called 抗体SH-05; not shown: 轻链恒定区
B7: SH-03 (antibody, V domains shown)
VH: QVQLQQSGPELVKPGASVKISCKASGYTFTDYYINWLRQKPGQGLEWIGWIYPGSANTNYNEKFKGKAILTVDTSSSTAYMQLSSLTSEDTAVYFCARWLLRSAYWGQGTLVTVSA
VL: DIVLSQSPAILSASPGEKVTMTCRASSSVSYMYWYQQKPGSSPKPWIYATSNLASGVPARFSGSGSGTSYSLTISRVEAEDAATYYCQQWSSNPYTFGGGTKLEIK
notes: From hybridoma; also called 抗体SH-03; not shown: 轻链恒定区
B8: SH-09 (antibody, human IgG1, V domains shown)
VH: QVQLVESGGGLVQPGGSLRLSCTASGFNLDFYTIGWFLQAPGKEREGVSCISNSGGSSVYADSVKGRFTISRDSAKNTVYLQMNSLDPEDTAVYYCAALAGRGCMRSPITTDEYDSWGQGTQVTVSS
notes: Heavy-chain-only antibody from the alpaca immune phage library; expressed in CHO cells; also called 抗体SH-09

biological target: T1, 人FGL1-his蛋白(Sinobio;Cat:13484-H08B); test: ELISA, plate coated with human FGL1-his

Binder | binding result
B1 | binds
B2 | binds
B3 | binds
B4 | binds
B5 | binds
B6 | binds
B7 | binds
B8 | binds

biological target: T2, 鼠FGL1-his; test: human/mouse cross-reactivity (ELISA of Example 8)

Binder | binding result
B5 | binds
